In paper PMC4840375 one finds stoichiometry N data, which are given here for two substances.

Experiment [1] concerns the target TraH, full length, purified and reconstituted in DDM micelles (Enterococcus faecalis (plasmid pIP501)). In words: SEC; analytical SEC of full length TraH reconstituted in DDM micelles; 70 kDa taken for the micelle; apparent molecular weight. In general terms: Size exclusion chromatography separates by hydrodynamic size, large species first.
Experiment [2] has the same target. In words: native gel or EMSA; semi-native PAGE: sample buffer without SDS and reducing agent, 4 °C, 12.5% native gels, running buffer with 0.1% SDS; full-length TraH in DDM micelles; western blot. In general terms: A gel shift assay detects complexes by their altered migration in electrophoresis.
Experiment [3] has the same target. As to the kind of experiment: cross-linking; in vitro, 8 μg purified protein, 300 mM NaCl, 100 mM bicine, 1 mM DTT, glutaraldehyde 0–1% (v/v), 15 min at RT; full-length TraH kept in DDM micelles; SDS-PAGE and western blot. In general terms: A western blot detects proteins with antibodies after separation by electrophoresis.
Experiment [4] deals with TraH expressed in E. faecalis JH2-2 (pEU327-RBS-traH) (Enterococcus faecalis (plasmid pIP501)). As to the kind of experiment: cross-linking; in vivo, E. faecalis JH2-2 (pEU327-RBS-traH) cells in early log phase, formaldehyde 0.5–2% in PBS for 10 minutes; SDS-PAGE and western blot.

For the substance “TraH, full length, purified and reconstituted in DDM micelles (natural protein)”, the stoichiometry N turned out to be 4 in experiment [1], 2 in experiment [2] and 2 in experiment [3].

For the substance “TraH expressed in E. faecalis JH2-2 (pEU327-RBS-traH) (natural protein)”, in experiment [4], the stoichiometry N is 2.

A word on the stoichiometry N: it is the number of molecules, sites or subunits per partner or assembly.
